# Values of other authors in patent publication US20040253224A1, “Mammalian mucinase, its recombinant production, and its use in therapy or prophylaxis against diseases in which mucus is involved or infectious diseases” (priority 2001, published 2004).
# B1: recombinant human DNase I: recombinant human deoxyribonuclease I, an enzyme that selectively cleaves DNA (Pulmozyme, Genentech) (protein, UniProt P24855 23-282, looked up)
# Deoxyribonuclease-1: LKIAAFNIQTFGETKMSNATLVSYIVQILSRYDIALVQEVRDSHLTAVGKLLDNLNQDAPDTYHYVVSEPLGRNSYKERYLFVYRPDQVSAVDSYYYDDGCEPCGNDTFNREPAIVRFFSRFTEVREFAIVPLHAAPGDAVAEIDALYDVYLDVQEKWGLEDVMLMGDFNAGCSYVRPSQWSSIRLWTSPTFQWLIPDSADTTATPTHCAYDRIVVAGMLLRGAVVPDSALPFNFQAAYGLSDQLAQAISDHYPVEVMLK
# Experiments:
# [1] = aerosolized, Phase 3, cystic fibrosis patients
# [2] = in vitro
molecule,measurement,setting,value
B1,improvement in FEV1,[1],5.6-5.8%
same,reduction in respiratory exacerbations,[1],28-37%
same,mucociliary transportability of CF sputum,[2],increased
same,viscosity and adhesiveness of purulent CF sputum,[2],decrease
